Laboratory results: article PMC7418079

Biological target: Enterovirus D68 virion, B1 clade isolate US/MO/14–18947 (Enterovirus D68)

B1: mAb EV68–159 (antibody, V domains shown)
VH: EVQLVESGGGLVKPGGLRLSCAASGFTFSTYIMTWVRQAPGRGLEWVSSISTSSVYTFYADSLKGRFTISRDNAKNSVYLQMNSLRADDTAVYYCAREEGFRAYNLYWGQGTLVTVSS
VL: QSVLTQPPSASGTPGQRVTISCSGSSSNIEYNYVYWYQKFPGTAPKLLIYKNNQRPSGVPDRFSGSKSGTSASLAISGLRSEDEGDYYCAAWDDILSGVVFGGGTKLTVL
**Q.** How did the IC50 of neutralisation of a B1 clade EV-D68 isolate, CCID50 assay on RD cells turn out when B1 was run?
**A.** 0.32 ng/mL
